B1: arginine kinase aqueous solution (D4-1-3): arginine kinase, SEQ ID NO: 9, derived from Toxoplasma gondii (protein, listed as Toxoplasma gondii)
chain: MLSAASPALARKSFDFRGSALRHFSSSGGHRGSSDTKISPGHSDKSGEPLDLPVFTSTKQIATIGPASWDYEEIERLFLAGVDVFRLNMSHGLLTEKHQQLLHVRHLEKVYKHPIAVLADLPGPKFRLGVFNNDEATLETGKSFILDSSTQPGDASRVQLPHPEILSVLRPDDIVLMDDGKVKLRVTEVFADTTALSRGLGDIESVSHTASPGSSVVRAPAVRCTVLVGGRISSKKGVNVPSARLPISALSARDRELARTVASWGVDWIALSFVQSADDVHELRRELREAAEAAGSTTAQYAAEQNRSESHVDRGDASGAGCRIRPDISVMVKIEKPIALENIAEIVAAADGIMVARGDLGVELPNIAWLPRVQKRLVSLCREAGKPVVVATQMLESMMQAPLPTRAEVSDVANAVYDGADAVMLSGETAAGNAPARVACMQRLGIEGVENDPSFWELEDQRRQARLRAAERCASTGTSALRVPRASKGREQELEKGSELQGESRDRTEEILSRFLPGRREHLAFSEADRQGNTSGDTNQGTSKTEQGADESDAWVEHTAAAVARQSGAKAIVVFGENEALLQRLATLRPTAPVLAVTECVHTARRLKMYWGIYPVLLEAEDQANVESRARRPASLDDQLRLACEFARKEKFATESTDNLVVLGRLPGGRENGTNSDKTTARLTRPILTVCTLESGR
modifications: aqueous solution
B2: nucleoside diphosphate kinase aqueous solution (D4-1-2): nucleoside diphosphate kinase, SEQ ID NO: 8, derived from rat pancreas (protein)
chain: LSGIAVAFLLLLLCYHRSSGPRIQVANPHNWRMVHQVAGELYNDTYPLTPPLRTPEGLRYHIAIIADLDTDSRSAKANTWVSYLKRGYLTLSSSGDHVAVEWEKEDIVLETHLAEKGRGMELSELIVFNGKLYSVDDRTGVVYRIEGSKAVPWVILTDGDGTVGKGFKAEWLAVKDEQLYVGGLGKEWTTTSGVVLNENPEWVKVIGPRGDTQHHNWVSNYNQLRSAAGIQPPGYLIHESAAWSDSLKSWFFLPRRASQEQYSEKEDEKRGSNILLRATPDFSDIKMSHVGTLNPTHGFSSFKFIPGTDDQIIVALKSEEDNGKVATYITAFTLDGRILLPETKVGNVKYEGIEFI
modifications: Rat pancreas
B3: nucleotidase aqueous solution (D3-1): nucleotidase, SEQ ID NO: 5, derived from Escherichia coli (protein, listed as Escherichia coli)
chain: MKQSHFFAHLSRLKLINRWPLMRNVRTENVSEHSLQVAMVAHALAAIKNRKFGGNVNAERIALLAMYHDASEVLTGDLPTPVKYFNSQIAQEYKAIEKIAQQKLVDMVPEELRDIFAPLIDEHAYSDEEKSLVKQADALCAYLKCLEELAAGNNEFLLAKTRLEATLEARRSQEMDYFMEIFVPSFHLSLDEISQDSPL
B4: ribonucleotide diphosphate reductase aqueous solution (D6-1): ribonucleotide diphosphate reductase, SEQ ID NO: 3, derived from Corynebacterium glutamicus (protein, listed as Corynebacterium glutamicum)
chain: MAADSDLSVHDAYLKEHVAPVKAINWNSIPDSKDLEVWDRLTGNFWLPEKVPVSNDIKSWGTLNEVEKAATMRVFTGLTLLDTIQGTVGAISLLPDADSLHEEAVLTNIAFMESVHAKSYSNIFMTLASTAEINDAFRWSEENENLQRKAKIILSYYEGDDPLKRKIASVILESFLFYSGFYLPMYWSSHSKLTNTADVIRLIIRDEAVHGYYIGYKYQKAVAKETPERQEELKEYTFDLLYDLYDNETQYSEDLYDDLGWTEDVKRFLRYIANKALNNLGYEGLFPADETKVSPNILSALSPNADENHDFFSGSGSSYVIGKAENTEDDDWDF
B5: apyrase aqueous solution (D2-1): apyrase, SEQ ID NO: 7, derived from xenopus (protein, listed as Xenopus laevis)
chain: MKSPQVECKESMSPLRISVAGLPVLASMTKTADPRFRPRWRAILLSGIAVAFLLLLLCYHRSSGPRIQVANPHNWRMVHQVAGELYNDTYPLTPPLRTPEGLRYHIAIIADLDTDSRSAKANTWVSYLKRGYLTLSSSGDHVAVEWEKEDIVLETHLAEKGRGMELSELIVFNGKLYSVDDRTGVVYRIEGSKAVPWVILTDGDGTVGKGFKAEWLAVKDEQLYVGGLGKEWTTTSGVVLNENPEWVKVIGPRGDTQHHNWVSNYNQLRSAAGIQPPGYLIHESAAWSDSLKSWFFLPRRASQEQYSEKEDEKRGSNILLRATPDFSDIKMSHVGTLNPTHGFSSFKFIPGTDDQIIVALKSEEDNGKVATYITAFTLDGRILLPETKVGNVKYEGIEFI

Columns and labels:
[1] = Enzyme activity ratio (Y1)=Vmax1/Vmax2 of conversion enzyme (Lineweaver-Burk); format: biochemical; conditions: each
Description: In the present invention, in the case where ribonucleoside diphosphate conversion enzyme (D) is used, an enzyme activity ratio (Y1) calculated from the following formula (1) using enzyme activity Vmax1 and enzyme activity Vmax2 described below is preferably not lower than 0.1 in terms of efficient polysaccharide production and efficient use of the substrate (ribonucleoside diphosphate-monosaccharide (A)). Enzyme activity ratio (Y1)=Vmax1/Vmax2 (1) • Enzyme activity Vmax1: the enzyme activity of ribonucleoside diphosphate conversion enzyme (D) on ribonucleoside diphosphate. • Enzyme activity Vmax2: the enzyme activity of ribonucleoside diphosphate conversion enzyme (D) on ribonucleoside diphosphate-monosaccharide (A).
An enzyme reaction solution (II) containing specific amounts of substrate (ribonucleoside diphosphate or uridine diphosphate-monosaccharide (A)), enzyme (polysaccharide synthase (B) or ribonucleoside diphosphate conversion enzyme (D)), pH adjuster (K), and water is prepared, which is adjusted to a specific temperature and a specific pH. • Phosphate-containing compound (F) is added, if necessary, to the enzyme reaction solution (II) if the enzyme to be used is (D4). Reducing agent (d6) is added if the enzyme is (D6), and raw material (d7) of nucleotide sugar is added if the enzyme is (D7).
After preparation of the enzyme reaction solution (II), it is allowed to stand for enzyme reaction for 1 minute to 100 hours. Next, the amount (X) of the reaction product obtained from the reaction is measured to determine the initial enzyme reaction velocity v. Likewise, the initial enzyme reaction velocity v is determined, using the enzyme reaction solution (II) having a different substrate concentration. A Lineweaver-Burk plot is generated from the above-obtained initial enzyme reaction velocity v and substrate concentration, and the enzyme activity Vmax is determined therefrom.
The enzyme activity Vmax (M/s) is determined using Lineweaver-Burk plot derived from Michaelis-Menten kinetics. […]
In the above measurement, the result determined using ribonucleoside diphosphate conversion enzyme (D) as an enzyme and ribonucleoside diphosphate as a substrate represents Vmax1, and the result determined using ribonucleoside diphosphate conversion enzyme (D) as an enzyme and ribonucleoside diphosphate-monosaccharide (A) as a substrate represents Vmax2. In the case where two or more types of ribonucleoside diphosphate-monosaccharide (A) are used, Vmax2 is determined for each ribonucleoside diphosphate-monosaccharide (A). The enzyme activity ratio (Y1) is also determined for each type from formula (1) using each Vmax2. […]
Enzyme reaction solution (II-1) was prepared by adding the following to 1 mL of aqueous solution P (50 mM phosphate buffer (pH of 7.0) containing 100 mM sodium chloride and 10 mM magnesium chloride): a substrate (uridine diphosphate) to a concentration of 0.5 mM in the solution, sucrose (available from Wako Pure Chemical Industries, Ltd.) to a concentration of 100 mM in the solution, and 1 μL of sucrose synthase aqueous solution (D7-1). […] Enzyme reaction solution (II-1) was allowed to stand at 30° C. for enzyme reaction for 30 minutes while measuring the amount of the reaction product (uridine diphosphate-glucose) using HPLC at 5-minute intervals, and the initial enzyme reaction velocity v was calculated. […]

[2] = Specific activity of ribonucleoside diphosphate conversion enzyme solutions (TLC, UV 260 nm); format: biochemical; conditions: 1 mM uridine diphosphate, 30° C., pH 7.0, with the co-substrate of each enzyme
Experimental: Reaction solution (2) was prepared by adding 10 μL of 1 M sucrose aqueous solution and 10 μL of sucrose synthase aqueous solution (D7-1) to 1 mL of aqueous solution R (50 mM phosphate buffer (pH of 7.0) containing 100 mM sodium chloride, 10 mM magnesium chloride, and 1 mM uridine diphosphate). Three such reaction solutions (2) were prepared and allowed to react at 30° C. for 5 minutes, 10 minutes, and 15 minutes, respectively. As for the amount of compound (C-7) as the reaction product (uridine diphosphate-glucose), the reaction product was developed on TLC (PEI-Cellulose plate available from Sigma-Aldrich Corporation, hereinafter the same) (developing solvent: an aqueous solution containing 1 M LiCl and 1 M formic acid, hereinafter the same), and detected with a UV light (260 nm). The specific activity of sucrose synthase aqueous solution (D7-1) was calculated to be 0.3 U/μL from the relationship between the yield of compound (C-7) and the reaction time.
Reaction solution (3) was prepared by adding 0.1 mg of reduced thioredoxin and 10 μL of ribonucleotide diphosphate reductase aqueous solution (D6-1) to 1 mL of aqueous solution R. Three such reaction solutions (3) were prepared and allowed to react at 30° C. for 5 minutes, 10 minutes, and 15 minutes, respectively. As for the amount of compound (C-6) as the reaction product (deoxyuridine diphosphate), the reaction product was developed on TLC and detected with a UV light (260 nm). The specific activity of ribonucleotide diphosphate reductase aqueous solution (D6-1) was calculated to be 0.3 U/μL from the relationship between the yield of compound (C-6) and the reaction time.
Reaction solution (4) was prepared by adding 10 μL of 1 M monopotassium phosphoenolpyruvate aqueous solution (available from Wako Pure Chemical Industries, Ltd.) and 10 μL of pyruvate kinase aqueous solution (D4-1-1) to 1 mL of aqueous solution R. Three such reaction solutions (4) were prepared and allowed to react at 30° C. for 5 minutes, 10 minutes, and 15 minutes, respectively. For the amount of compound (C-4) as the reaction product (uridine triphosphate), the reaction product was developed on TLC and detected with a UV light (260 nm). The specific activity of pyruvate kinase aqueous solution (D4-1-1) was calculated to be 0.3 U/μL from the relationship between the yield of compound (C-4) and the reaction time.
Reaction solution (5) was prepared by adding 10 μL of nucleotidase aqueous solution (D3-1) to 1 mL of aqueous solution R. Three such reaction solutions (5) were prepared and allowed to react at 30° C. for 5 minutes, 10 minutes, and 15 minutes, respectively. For the amount of compound (C-3) as the reaction product (uridine monophosphate), the reaction product was developed on TLC and detected with a UV light (260 nm). The specific activity of nucleotidase aqueous solution (D3-1) was calculated to be 0.3 U/μL from the relationship between the yield of compound (C-3) and the reaction time.
Reaction solution (6) was prepared by adding 1 mg of polyuridine (product name “polyuridylic acid potassium salt” available from Sigma-Aldrich Corporation) and 10 μL of polyribonucleotide nucleotidyltransferase aqueous solution (D5-1) to 1 mL of aqueous solution R. Three such reaction solutions (6) were prepared and allowed to react at 30° C. for 5 minutes, 10 minutes, and 15 minutes, respectively. […]

[3] = Vmax2 substrates UDP-glucuronic acid, -N-acetylglucosamine, -N-acetylgalactosamine, -glucose, -mannose, -glucosamine
[4] = Vmax2 substrates uridine diphosphate-glucuronic acid and uridine diphosphate-N-acetylglucosamine

Molecule | enzyme activity ratio (Y1) of each type [1, 3] | specific activity [2] [U/μL] | enzyme activity ratio (Y1) of each type [1, 4]
B1 | ≥ 10 | 0.3 | –
B2 | ≥ 10 | 0.3 | –
B3 | – | 0.3 | ≥ 10
B4 | – | 0.3 | ≥ 10
B5 | – | 0.3 | ≥ 10

Reference: patent US9670514B2, “Method for producing polysaccharide” (SANYO CHEMICAL INDUSTRIES, LTD., priority 2011, dated 2017)
